From patent publication US20250250335A1
Several values for one entry are separate records, joined by “and”; a condition that tells them apart may be missing. Equal values may be shown once.

Target: T1, mouse CEACAM5 (mouse) (UniProt Q3UKK2)
T1 sequence (looked up): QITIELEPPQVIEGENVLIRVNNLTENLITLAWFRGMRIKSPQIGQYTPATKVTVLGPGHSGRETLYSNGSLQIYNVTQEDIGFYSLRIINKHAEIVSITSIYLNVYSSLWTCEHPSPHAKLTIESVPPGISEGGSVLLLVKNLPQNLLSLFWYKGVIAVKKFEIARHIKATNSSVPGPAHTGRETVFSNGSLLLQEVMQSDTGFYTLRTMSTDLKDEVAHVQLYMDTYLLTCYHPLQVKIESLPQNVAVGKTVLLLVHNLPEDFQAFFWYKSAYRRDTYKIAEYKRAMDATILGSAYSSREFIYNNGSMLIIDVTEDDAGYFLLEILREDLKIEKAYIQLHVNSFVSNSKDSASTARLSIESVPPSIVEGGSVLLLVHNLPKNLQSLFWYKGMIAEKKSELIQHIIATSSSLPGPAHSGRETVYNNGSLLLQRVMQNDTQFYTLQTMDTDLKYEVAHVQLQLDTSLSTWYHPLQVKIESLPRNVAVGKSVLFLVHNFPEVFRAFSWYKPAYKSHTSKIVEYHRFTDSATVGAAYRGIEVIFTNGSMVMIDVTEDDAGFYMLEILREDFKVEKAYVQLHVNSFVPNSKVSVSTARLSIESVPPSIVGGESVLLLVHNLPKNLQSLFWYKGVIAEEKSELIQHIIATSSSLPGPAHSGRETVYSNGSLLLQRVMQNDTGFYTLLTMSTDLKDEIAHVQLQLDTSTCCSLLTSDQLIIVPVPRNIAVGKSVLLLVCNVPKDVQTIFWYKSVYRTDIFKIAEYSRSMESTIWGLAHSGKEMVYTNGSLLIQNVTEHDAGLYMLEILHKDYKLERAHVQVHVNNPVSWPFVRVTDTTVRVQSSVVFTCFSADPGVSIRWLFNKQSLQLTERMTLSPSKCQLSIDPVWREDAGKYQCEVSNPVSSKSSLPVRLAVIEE
Assay: ELISA on coated protein, OD450

OD: 0.31 OD and 0.24 OD
B1: Antibody 7 (antibody, V domains shown)
VH: QIQLVQSGPELKKPGETVKISCKASGYTFTDYGMNWVKQAPGKGLKWMGWINTYTGEPTYPDDFKGRFAFSLETSATTAYLQINNLKNEDTATYFCSRGDLLVRLDNWGQGTTLTVSS
VL: DIQMTQSPSSLSASLGGKVTITCKASQDINKYISWYQHKPGKGPRLLIHYTSTLQSGIPSRFSGSGSGRDYSFSISNLEPEDIATYYCLQYDYLRTFGGGTKLEIK
